{"source": "the supplement of paper PMC12338614", "parents": {"B1": {"name": "library; numbered along this chain (parent)", "chain": "MEVVDPQQLGMFTEGELMSVGMDTFIHRIDSTEVIYQPRRKRAKLIGKYLMGDLLGEGSYGKVKEVLDSETLCRRAVKILKKKKLRRIPNGEANVKKEIQLLRRLRHKNVIQLVDVLYNEEKQKMYMVMEYCVCGMQEMLDSVPEKRFPVCQAHGYFCQLIDGLEYLHSQGIVHKDIKPGNLLLTTGGTLKISDLGVAEALHPFAADDTCRTSQGSPAFQPPEIANGLDTFSGFKVDIWSAGVTLYNITTGLYPFEGDNIYKLFENIGKGSYAIPGDCGPPLSDLLKGMLEYEPAKRFSIRQIRQHSWFRKKHPPAEAPVPIPPSPDTKDRWRSMTVVPYLEDLHGADEDEDLFDIEDDIIYTQDFTVPGQVPEEEASHNGQRRGLPKAVCMNGTEAAQLSTKSRAEGRAPNPARKACSASSKIRRLSACKQQ"}}, "note": "± gives the uncertainty stated by the source.", "data": [{"variants_of": "B1", "assay": "STK11 functional score (HeLa growth suppression), rescaled enrichment; synonymous median = 1, nonsense median = 0 (normalised score)", "conditions": "with HeLa; variant type: missense", "protocol": "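Deep mutational scan (TileSeq/POPCode codon randomisation) of full-length codon-optimised STK11 cDNA integrated at a Bxb1 landing pad (AAVS1) in HeLa cells. Restoring functional STK11 suppresses HeLa proliferation. Variant frequencies were measured by NGS before and after about two weeks of growth. The error-corrected enrichment log-ratio was rescaled so that synonymous median = 1 and nonsense median = 0, scores above 1 were compressed, and codon-level and three biological replicate scores were combined; error is the bootstrapped standard error. Scale: synonymous median = 1, nonsense median = 0; below 0.5 = damaging.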", "values": [{"variant": "MEVVDPQQLGMFTEGELMSVGMDTFIHRIDSTEVIYQPRRKRAKLIGKYLMGDLLGEGSYGKVKEVLDSETLCRRAVKILKKKKLRRIPNGEANVKKEIQLLRRLRHKNVIQLVDVLYNEEKQKMYMVMEYCVCGMQEMLDSVPEKRFPVCQAHGYFCQLIDGLEYLHSQGIVHKDIKPGNLLLTTGGTYKISDLGVAEALHPFAADDTCRTSQGSPAFQPPEIANGLDTFSGFKVDIWSAGVTLYNITTGLYPFEGDNIYKLFENIGKGSYAIPGDCGPPLSDLLKGMLEYEPAKRFSIRQIRQHSWFRKKHPPAEAPVPIPPSPDTKDRWRSMTVVPYLEDLHGADEDEDLFDIEDDIIYTQDFTVPGQVPEEEASHNGQRRGLPKAVCMNGTEAAQLSTKSRAEGRAPNPARKACSASSKIRRLSACKQQ", "note": "[L190Y]", "STK11 functional score": "0.0792 ± 0.094"}, {"variant": "MEVVDPQQLGMFTEGELMSVGMDTFIHRIDSTEVIYQPRRKRAKLIGKYLMGDLLGEGSYGKVKEVLDSETLCRRAVKILKKKKLRRIPNGEANVKKEIQLLRRLRRKNVIQLVDVLYNEEKQKMYMVMEYCVCGMQEMLDSVPEKRFPVCQAHGYFCQLIDGLEYLHSQGIVHKDIKPGNLLLTTGGTLKISDLGVAEALHPFAADDTCRTSQGSPAFQPPEIANGLDTFSGFKVDIWSAGVTLYNITTGLYPFEGDNIYKLFENIGKGSYAIPGDCGPPLSDLLKGMLEYEPAKRFSIRQIRQHSWFRKKHPPAEAPVPIPPSPDTKDRWRSMTVVPYLEDLHGADEDEDLFDIEDDIIYTQDFTVPGQVPEEEASHNGQRRGLPKAVCMNGTEAAQLSTKSRAEGRAPNPARKACSASSKIRRLSACKQQ", "note": "[H107R]", "STK11 functional score": "0.205 ± 0.11"}, {"variant": "MEVVDPQQLGMFTEGELMSVGMDTFIHRIDSTEVIYQPRRKRAKLIGKYLMGDLLGEGSYGKVKEVLDSETLCRRAVKILKKKKLRRILNGEANVKKEIQLLRRLRHKNVIQLVDVLYNEEKQKMYMVMEYCVCGMQEMLDSVPEKRFPVCQAHGYFCQLIDGLEYLHSQGIVHKDIKPGNLLLTTGGTLKISDLGVAEALHPFAADDTCRTSQGSPAFQPPEIANGLDTFSGFKVDIWSAGVTLYNITTGLYPFEGDNIYKLFENIGKGSYAIPGDCGPPLSDLLKGMLEYEPAKRFSIRQIRQHSWFRKKHPPAEAPVPIPPSPDTKDRWRSMTVVPYLEDLHGADEDEDLFDIEDDIIYTQDFTVPGQVPEEEASHNGQRRGLPKAVCMNGTEAAQLSTKSRAEGRAPNPARKACSASSKIRRLSACKQQ", "note": "[P89L]", "STK11 functional score": "0.532 ± 0.24"}, {"variant": "MEVVDPEQLGMFTEGELMSVGMDTFIHRIDSTEVIYQPRRKRAKLIGKYLMGDLLGEGSYGKVKEVLDSETLCRRAVKILKKKKLRRIPNGEANVKKEIQLLRRLRHKNVIQLVDVLYNEEKQKMYMVMEYCVCGMQEMLDSVPEKRFPVCQAHGYFCQLIDGLEYLHSQGIVHKDIKPGNLLLTTGGTLKISDLGVAEALHPFAADDTCRTSQGSPAFQPPEIANGLDTFSGFKVDIWSAGVTLYNITTGLYPFEGDNIYKLFENIGKGSYAIPGDCGPPLSDLLKGMLEYEPAKRFSIRQIRQHSWFRKKHPPAEAPVPIPPSPDTKDRWRSMTVVPYLEDLHGADEDEDLFDIEDDIIYTQDFTVPGQVPEEEASHNGQRRGLPKAVCMNGTEAAQLSTKSRAEGRAPNPARKACSASSKIRRLSACKQQ", "note": "[Q7E]", "STK11 functional score": "1.27 ± 0.34"}, {"variant": "MEVVDPQQLGMFTEGELMSVGMDTFIHRIDSTEVIYQPRRKRAKLIGKYLMGDLLGEGSYGKVKEVLDSETLCRRAVKILKKKKLRRIPNGEANVKKEIQLLRRLRHKNVIQLVDVLYNEEKQKMYMVMEYCVCGMQEMLDSVPEKRFPVCQAHGYFCQLIDGLEYLHSQGIVHKDIKPGNLLLTTGGTLKISDLGVAEALHPFAADDTCRTSQGSPAFQPPEIANGLDTFSGFKVDIWSAGVTLYNITTGLYPFEGDNIYKLFENIGKGSYAIPGDCGPPLSDLLKGMLEYEPAKRFSIRQIRQHSWFRKKHPPAEAPVPIPPSPDTKDRWRSMTVVPYLEDLHGADEDEDLFDIEDDIIYTQAFTVPGQVPEEEASHNGQRRGLPKAVCMNGTEAAQLSTKSRAEGRAPNPARKACSASSKIRRLSACKQQ", "note": "[D365A]", "STK11 functional score": "0.704 ± 0.15"}, {"variant": "MEVVDPQQLGMFTEGELMSVGMDTFIHRIDSTEVIYQPRRKRAKLIGKYLMGDLLGEGSYGKVKEVLDSETLCRRAVKILKKKKLRRIPNGEANVKKEIQLLRRLRHKNVIQLVDVLYNEEKQKMYMVMEYCVCGMQEMLDSVPEKRFPVCQAHGYFCQLIDGLEYLHSQGIVHKDIKPGNLLLTTGGTLKISDLGVAEALHPFAADDTCRTSQGSPAFQPPEIANGLDTFSGFKVDIWSAGVTLYNITTGLYPFEGDNIYKLFENIGKGSYAIPGDCGPPLSDLLKGMLEYEPAKRFSIRQIRQHSWFRKKHPPAEAPVPIPPSPDTKDRWRSMTVVPYLEDDHGADEDEDLFDIEDDIIYTQDFTVPGQVPEEEASHNGQRRGLPKAVCMNGTEAAQLSTKSRAEGRAPNPARKACSASSKIRRLSACKQQ", "note": "[L344D]", "STK11 functional score": "1.46 ± 0.17"}, {"variant": "MEVVDPQQLGMFTEGELMSVGMDTFIHRIDSTEVIYQPRRKRAKLIGKYLMGDLLGEGSYGKVKEVLDSETLCRRAVKILKKKKLRRIPNGEANVKKEIQLLRRLRHKNVIQLVDVLYNEEKQKMYMVMEYCVCGMQEMLDSVPEKRFPVCQAHGYFCQLIDGLEYLHSQGIVHKDIKPGNLLLTTGGTLKISDLGVAEALHPFAADDTCRTSQGSPAFQPPEIANGLDTFSGFKVDIWSAGVTLYNITTGLYPFEGDNIYKLFENIGKGSYAIPGDCGPPLSDLLEGMLEYEPAKRFSIRQIRQHSWFRKKHPPAEAPVPIPPSPDTKDRWRSMTVVPYLEDLHGADEDEDLFDIEDDIIYTQDFTVPGQVPEEEASHNGQRRGLPKAVCMNGTEAAQLSTKSRAEGRAPNPARKACSASSKIRRLSACKQQ", "note": "[K287E]", "STK11 functional score": "1.62 ± 0.27"}]}]}
